# Reference: publication PMC3632103
# Read-outs that look alike come from different tables or passages of the source.
# T1: D2 helicase K405E (His-MBP fusion) (Bacteriophage T5, UniProt Q6QGH9 1-928, K405E)
# T1 sequence: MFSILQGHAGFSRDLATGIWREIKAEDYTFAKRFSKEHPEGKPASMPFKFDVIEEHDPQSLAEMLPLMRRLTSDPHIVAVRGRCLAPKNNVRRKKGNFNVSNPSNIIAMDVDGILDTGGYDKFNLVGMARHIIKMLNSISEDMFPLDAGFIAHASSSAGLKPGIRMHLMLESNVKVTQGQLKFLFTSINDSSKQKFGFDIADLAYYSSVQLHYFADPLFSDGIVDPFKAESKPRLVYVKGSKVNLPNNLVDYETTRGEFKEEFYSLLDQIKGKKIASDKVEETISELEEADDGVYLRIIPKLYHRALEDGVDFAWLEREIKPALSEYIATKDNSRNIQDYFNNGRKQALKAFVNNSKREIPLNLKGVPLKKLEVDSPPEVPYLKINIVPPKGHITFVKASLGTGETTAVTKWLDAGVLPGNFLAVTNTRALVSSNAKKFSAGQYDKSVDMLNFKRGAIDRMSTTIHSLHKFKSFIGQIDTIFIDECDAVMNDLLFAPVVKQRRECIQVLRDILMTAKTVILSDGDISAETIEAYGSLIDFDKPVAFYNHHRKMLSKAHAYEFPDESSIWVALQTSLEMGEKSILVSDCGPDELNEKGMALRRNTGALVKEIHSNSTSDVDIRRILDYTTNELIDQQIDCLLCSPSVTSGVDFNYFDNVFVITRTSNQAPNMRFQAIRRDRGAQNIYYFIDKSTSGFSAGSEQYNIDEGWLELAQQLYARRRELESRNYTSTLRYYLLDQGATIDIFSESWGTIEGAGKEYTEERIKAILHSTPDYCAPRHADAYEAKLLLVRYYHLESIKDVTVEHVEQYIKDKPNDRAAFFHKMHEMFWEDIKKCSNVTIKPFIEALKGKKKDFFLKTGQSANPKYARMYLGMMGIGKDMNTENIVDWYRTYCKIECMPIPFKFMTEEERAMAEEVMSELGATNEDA
# T2: D2 helicase WT (His-MBP fusion) (Bacteriophage T5, UniProt Q6QGH9 1-928)
# T2 sequence: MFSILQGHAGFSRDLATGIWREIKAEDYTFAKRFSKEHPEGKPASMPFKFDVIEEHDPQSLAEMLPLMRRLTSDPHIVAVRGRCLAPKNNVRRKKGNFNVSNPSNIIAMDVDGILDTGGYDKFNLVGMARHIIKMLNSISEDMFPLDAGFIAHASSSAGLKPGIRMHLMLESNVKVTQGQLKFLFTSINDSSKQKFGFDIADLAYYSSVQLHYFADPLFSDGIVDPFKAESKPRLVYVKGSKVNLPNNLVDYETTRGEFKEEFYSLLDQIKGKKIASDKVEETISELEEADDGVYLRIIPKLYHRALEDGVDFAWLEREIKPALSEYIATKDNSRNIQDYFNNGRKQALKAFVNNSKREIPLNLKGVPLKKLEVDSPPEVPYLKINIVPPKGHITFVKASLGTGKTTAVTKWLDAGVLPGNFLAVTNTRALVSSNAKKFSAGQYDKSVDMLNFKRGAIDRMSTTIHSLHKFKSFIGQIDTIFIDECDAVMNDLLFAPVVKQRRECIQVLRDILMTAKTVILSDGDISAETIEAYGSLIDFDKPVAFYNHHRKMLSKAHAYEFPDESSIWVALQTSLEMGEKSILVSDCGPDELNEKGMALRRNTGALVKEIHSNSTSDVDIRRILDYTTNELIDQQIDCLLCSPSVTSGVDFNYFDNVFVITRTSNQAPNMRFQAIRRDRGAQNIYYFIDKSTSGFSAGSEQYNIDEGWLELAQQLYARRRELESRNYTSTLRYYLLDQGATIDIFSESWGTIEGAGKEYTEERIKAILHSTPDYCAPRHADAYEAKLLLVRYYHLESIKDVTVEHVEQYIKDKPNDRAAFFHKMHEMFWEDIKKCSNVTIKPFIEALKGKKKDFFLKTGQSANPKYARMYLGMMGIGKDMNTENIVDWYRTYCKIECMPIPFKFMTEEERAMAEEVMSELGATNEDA
# How the values were obtained:
# Experiment in all cases: EMSA
# [1] = molecular target: T1, D2 helicase K405E (His-MBP fusion)
# [2] = molecular target: T2, D2 helicase WT (His-MBP fusion)
# [3] = molecular target: T2, D2 helicase WT (His-MBP fusion); remark: listed apart in the source
Binder,binding result [1],binding result [2],binding result [3]
TTTTTTTTTTTTTTTTTTTTTTTTT (ssDNA) [T25],binds,binds,–
T55 (ssDNA) DNA: TTTTTTTTTTTTTTTTTTTTTTTTTTTTTTTTTTTTTTTTTTTTTTTTTTTTTTT,–,–,binds
TTTTTTTTTTTTTTTTTTTTTTTTTTTTTTTTTTT (ssDNA) [T35],–,–,binds
